Source: patent US20120283184A1 (published 2012)

Target: T1, human vascular endothelial growth factor receptor-2 Fc chimera (KDR-Fc) (human, UniProt P35968 20-764)
T1 construct: range 1-764; also called human VEGFR-2; not shown: human IgG1 Fc
Assay: radioactive equilibrium binding, 1 nM KDR-Fc, % of input
Experimental: To prepare ³⁵S-labeled binding proteins for analysis, mRNA was prepared as described above for RNA-protein fusion production but the linker ligation step was omitted. The mRNA was expressed using rabbit reticulocyte lysate translation kit (Ambion) in the presence of ³⁵S-labeled Met at 30° C. for 1 hour. Expressed protein was purified on M2-agarose Flag beads (Sigma) as described above. This procedure produced the encoded protein without the nucleic acid tail. In a direct binding assay, VEGF-R2-Fc fusions in concentrations ranging from 0 to 200 nM were added to a constant concentration of the purified protein (0.2 or 0.5 nM) and incubated at 30° C. for 1 hour in buffer B. The receptor-binder complexes were captured using Protein A magnetic beads for another 10 minutes at room temperature using a Kingfisher™ The beads were washed with six reaction volumes of buffer B. The protein was eluted from the beads with 100 μL of 0.1 M KOH. 50 μL of the reaction mixture and elution were dried onto a LumaPlate-96 (Packard) and the amount of ³⁵S on the plate was measured using a TopCount NXT instrument (Packard). The amount of fibronectin-based scaffold protein bound to the target was estimated as a percent of radioactivity eluted from Protein A magnetic beads compare to radioactivity in the reaction mixture. Nonspecific binding of fibronectin-based scaffold proteins to the beads was determined by measuring binding in the absence of KDR-Fc and represented less than 1-2% of the input. Specific binding was obtained through subtraction of nonspecific binding from total binding. Data was analyzed using the GraphPad Prizm software (GraphPad Software, Inc, San Diego, Calif.), fitted using a one site, non-linear binding equation.

T1 sequence (P35968 20-764 limits assumed, change not shown, form in doubt): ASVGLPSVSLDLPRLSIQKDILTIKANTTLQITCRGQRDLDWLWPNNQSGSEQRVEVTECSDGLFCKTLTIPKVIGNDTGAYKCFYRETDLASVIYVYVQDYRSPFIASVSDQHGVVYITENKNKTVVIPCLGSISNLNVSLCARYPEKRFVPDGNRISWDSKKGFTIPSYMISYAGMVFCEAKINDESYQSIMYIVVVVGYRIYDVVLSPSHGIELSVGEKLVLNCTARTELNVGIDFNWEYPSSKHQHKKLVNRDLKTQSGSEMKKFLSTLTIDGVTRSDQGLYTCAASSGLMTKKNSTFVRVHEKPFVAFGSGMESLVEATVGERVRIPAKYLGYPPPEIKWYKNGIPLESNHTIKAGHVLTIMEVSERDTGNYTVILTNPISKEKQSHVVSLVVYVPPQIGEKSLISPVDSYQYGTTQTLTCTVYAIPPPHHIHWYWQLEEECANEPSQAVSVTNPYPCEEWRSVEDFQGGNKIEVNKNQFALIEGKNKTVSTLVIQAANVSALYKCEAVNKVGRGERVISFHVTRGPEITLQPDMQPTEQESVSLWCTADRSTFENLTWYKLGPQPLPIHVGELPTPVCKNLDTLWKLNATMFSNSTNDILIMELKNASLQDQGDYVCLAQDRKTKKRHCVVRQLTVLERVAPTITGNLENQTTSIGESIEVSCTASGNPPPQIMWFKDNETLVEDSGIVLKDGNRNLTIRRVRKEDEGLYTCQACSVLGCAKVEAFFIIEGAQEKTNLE

Binding to 1 nM KDR, % [%] | Binder
22 | 2′E4-PR4 (designed binder) VSDVPRDLEVVAATPTSLLISWRHPHFPTRYYRITYGETGGNSPVQEFTVPLQPPTATISGLKPGVDYTITVYAVTVHWNGHELMTPISINYRT
22 | 2′D6-PR4 (designed binder) VSDVPRDLEVVAATPTSLLISWRHPHFPTRYYRITYGETGGNSPVQEFTVPLQPPTATISGLKPGVDYTITVYAVTVTHNGHPLMTPISINYRT
16 | 2′C6-PR4 (designed binder) VSDVPRDLEVVAATPTSLLISWRHPHFPTRYYRITYGETGGNSPVQEFTVPLQPPTATISGLKPGVDYTITVYAVTMGFMAHELMVPISINYRT
17 | 2′H4-PR4 (designed binder) VSDVPRDLEVVAATPTSLLISWRHPHFPTRYYRITYGETGGNSPVQEFTVPLQPPTATISGLKPGVDYTITVYAVTVGPNERMLMTPISINYRT
18 | 3′F9 PR4 (designed binder) EVVAATPTSLLISWRHPHFPTRYYRITYGETGGNSPVQEFTVPLQPPTATISGLKPGVDYTITVYAVTLGPNDRELMTPISINYRT
16 | 4′B7 PR4 (designed binder) EVVAATPTSLLISWRHPHFPTRYYRITYGETGGNSPVQEFTVPLQPPTATISGLKPGVDYTITVYAVTVAQNNHELLTPISINYRT
20 | 3′H8 PR4 (designed binder) EVVAATPTSLLISWRHPHFPTRYYRITYGETGGNSPVQEFTVPLQPPTATISGLKPGVDYTITVYAVTVGHNDRELITPISINYRT
29 | 4′C9 PR4 (designed binder) EVVAATPTSLLISWRHPHFPTRYYRITYGETGGNSPVQEFTVPLQPPTATISGLKPGVDYTITVYAVTLGPNDHELMTPISINYRT
36 | 3′H3 PR4 (designed binder) EVVAATPTSLLISWRHPHFPTRYYRITYGETGGNSPVQEFTVPLQPPTATISGLKPGVDYTITVYAVTLGLNDRELMTPISINYRT
16 | 4C9 PR3 (designed binder) EVVAATPTSLLISWRHPHFPTRYYRITYGETGGNSPVQEFTVPLQPPTATISGLKPGVDYTITVYAVTLAQNDHELLTPISINYRT
39 | 3′H11 PR4 (designed binder) EVVAATPTSLLISWRHPHFPTRYYRITYGETGGNSPVQEFTVPLQPPTATISGLKPGVDYTITVYAVTLAHNGNELLTPISINYRT
14 | 4′D6 PR4 (designed binder) EVVAATPTSLLISWRHPHFPTRYYRITYGETGGNSPVQEFTVPLQPPTATISGLKPGVDYTITVYAVTMAQNDHELMTPISINYRT
27 | 4′C5 PR4 (designed binder) EVVAATPTSLLISWRHPHFPTRYYRITYGETGGNSPVQEFTVPLQPPTATISGLKPGVDYTITVYAVTLGLNDHELITPISINYRT
14 | 4H5 PR3 (designed binder) EVVAATPTSLLISWRHPHFPTRYYRITYGETGGNSPVQEFTVPLQPPTATISGLKPGVDYTITVYAVTVAQNGHELITPISINYRT
30 | 3′G10 PR4 (designed binder) EVVAATPTSLLISWRHPHFPTRYYRITYGETGGNSPVQEFTVPLQPPTATISGLKPGVDYTITVYAVTLTHNDHELLTPISINYRT
15 | 3′G2 PR4 (designed binder) EVVAATPTSLLISWRHPHFPTRYYRITYGETGGNSPVQEFTVPLQPPTATISGLKPGVDYTITVYAVTLAQNGHELITPISINYRT
15 | 4F4 PR3 (designed binder) EVVAATPTSLLISWRHPHFPTRYYRITYGETGGNSPVQEFTVPLQPPTATISGLKPGVDYTITVYAVTLAQNDRELITPISINYRT
19 | 3′G7 PR4 (designed binder) EVVAATPTSLLISWRHPHFPTRYYRITYGETGGNSPVQEFTVPLQPPTATISGLKPGVDYTITVYAVTEGQNDQLLFIPISINYRT

Binding to 1 nM KDR, % [%] | Binder
42 | 4′B3 PR4 (designed binder) EVVAATPTSLLISWRHPHFPTRYYRITYGETGGNSPVQEFTVPLQPPTATISGLKPGVDYTITVYAVTMAQNNRELLTPISINYRT
19 | 3′G1 PR4 (designed binder) EVVAATPTSLLISWRHPHFPTRYYRITYGETGGNSPVQEFTVPLQPPTATISGLKPGVDYTITVYAVTLALNGHELFTPISINYRT
17 | 3′F12 PR4 (designed binder) EVVAATPTSLLISWRHPHFPTRYYRITYGETGGNSPVQEFTVPLQPPTATISGLKPGVDYTITVYAVTLSQTDHELLTPISINYRT
21 | 4′G12 PR4 (designed binder) EVVAATPTSLLISWRHPHFPTRYYRITYGETGGNSPVQEFTVPLQPPTATISGLKPGVDYTITVYAVTVAWNDHEIYTPISINYRT
25 | 4′B11 PR4 (designed binder) EVVAATPTSLLISWRHPHFPTRYYRITYGETGGNSPVQEFTVPLQPPTATISGLKPGVDYTITVYAVTMAHNDHELLTPISINYRT
16 | 4′A5 PR4 (designed binder) EVVAATPTSLLISWRHPHFPTRYYRITYGETGGNSPVQEFTVPLQPPTATISGLKPGVDYTITVYAVTLAQNDHELLTPISINYRT
22 | 3′H1 PR4 (designed binder) EVVAATPTSLLISWRHPHFPTRYYRITYGETGGNSPVQEFTVPLQPPTATISGLKPGVDYTITVYAVTFAQNDHQLFTPISINYRT
31 | 3′G3 PR4 (designed binder) EVVAATPTSLLISWRHPHFPTRYYRITYGETGGNSPVQEFTVPLQPPTATISGLKPGVDYTITVYAVTFDQSDHELLTPISINYRT
24 | 3′H9 PR4 (designed binder) EVVAATPTSLLISWRHPHFPTRYYRITYGETGGNSPVQEFTVPLQPPTATISGLKPGVDYTITVYAVTHGPYDQVLLTPISINYRT
17 | 4′H12 PR4 (designed binder) EVVAATPTSLLISWRHPHFPTRYYRITYGETGGNSPVQEFTVPLQPPTATISGLKPGVDYTITVYAVTVAHNDHELLTPISINYRT
29 | 4′H7 PR4 (designed binder) EVVAATPTSLLISWRHPHFPTRYYRITYGETGGNSPVQEFTVPLQPPTATISGLKPGVDYTITVYAVTLAHNDHELLTPISINYRT
19 | 4′G4 PR4 (designed binder) EVVAATPTSLLISWRHPHFPTRYYRITYGETGGNSPVQEFTVPLQPPTATISGLKPGVDYTITVYAVTVAQNDRELLTPISINYRT
26 | 4′D8 PR4 (designed binder) EVVAATPTSLLISWRHPHFPTRYYRITYGETGGNSPVQEFTVPLQPPTATISGLKPGVDYTITVYAVTLAQNGHELYTPISINYRT
14 | 3′H10 PR4 (designed binder) EVVAATPTSLLISWRHPHFPTRYYRITYGETGGNSPVQEFTVPLQPPTATISGLKPGVDYTITVYAVTWAWNDHELMTPISINYRT
17 | 4′E7 PR4 (designed binder) EVVAATPTSLLISWRHPHFPTRYYRITYGETGGNSPVQEFTVPLQPPTATISGLKPGVDYTITVYAVTWAQNDHELLTPISINYRT
18 | 4′H5 PR4 (designed binder) EVVAATPTSLLISWRHPHFPTRYYRITYGETGGNSPVQEFTVPLQPPTATISGLKPGVDYTITVYAVTLAQNGHELFTPISINYRT
20 | 4′B8 PR4 (designed binder) EVVAATPTSLLISWRHPHFPTRYYRITYGETGGNSPVQEFTVPLQPPTATISGLKPGVDYTITVYAVTVAQNDHKLFIPISINYRT
15 | 4B11 PR3 (designed binder) EVVAATPTSLLISWRHPHFPTRYYRITYGETGGNSPVQEFTVPLQPPTATISGLKPGVDYTITVYAVTVGQNNHELITPISINYRT
